Source: the supplement of paper PMC10567573

B1: PLAGL1 (parent)
chain: DPNKMAFGCEECGKKYNTMLGYKR
B2: CLCN6 (parent)
chain: FQSISLRKIQFNFPYFRSDRDKRD

Variants of: B1
Assay: protein stability index of a GFP-peptide fusion (GPS, HEK-293T) (PSI 1-6); higher = more stable
Conditions: c terminus: a fixed tail appended
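Also: lentivirally expressed fusions sorted by FACS into six bins by GFP to DsRed ratio, PSI derived from sequencing read proportions per bin multiplied by bin number.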

Row | Variant | protein stability index
1 | M5E | 3.31
2 | M5K | 2.26
3 | M5Q | 2.26
4 | M5H | 2.73
5 | M5T | 2.88
6 | M5N | 2.48
7 | M5V | 1.93
8 | M5Y | 2.33
9 | M5R | 2.36
10 | M5G | 2.81
11 | M5D | 3.54
12 | M5P | 2.2
13 | M5S | 2.81
14 | M5F | 2.15
15 | M5L | 2.67
16 | M5W | 2.35
17 | M5I | 2.38
18 | M5A | 2.63
19 | M5C | 3.04
20 | N3F | 2.15
21 | N3Y | 2.14
22 | N3S | 2.87
23 | N3H | 2.61
24 | N3I | 2.19
25 | N3R | 2.25

Row | Variant | protein stability index
26 | N3K | 3.1
27 | N3E | 2.52
28 | N3G | 2.8
29 | N3C | 2.23
30 | N3T | 2.79
31 | N3M | 2.82
32 | N3L | 3.54
33 | N3Q | 3.51
34 | N3P | 2.26
35 | N3V | 2.69
36 | N3W | 2.23
37 | N3A | 2.21
38 | D1Q | 2.05
39 | D1G | 2.22
40 | D1L | 2.34
41 | D1M | 2.26
42 | D1E | 1.77
43 | D1P | 2.08
44 | D1K | 2.09
45 | D1N | 3.64
46 | D1C | 2.18
47 | D1T | 2.13
48 | D1R | 1.8
49 | D1I | 2.16
50 | D1V | 2.7

Row | Variant | protein stability index
51 | D1H | 2.05
52 | D1S | 2.05
53 | D1A | 1.94
54 | K4R | 1.64
55 | K4P | 3.01
56 | K4Q | 2.61
57 | K4D | 2.53
58 | K4C | 2.45
59 | K4N | 2.55
60 | K4T | 2.61
61 | K4V | 1.98
62 | K4H | 2.35
63 | K4S | 2.48
64 | K4E | 3.3
65 | K4A | 2.35
66 | K4W | 2.08
67 | K4L | 2.85
68 | K4Y | 2.59
69 | K4M | 2.6
70 | K4G | 2.72
71 | K4F | 1.61
72 | K4I | 1.95
73 | P2G | 2.05
74 | P2V | 2
75 | P2I | 1.88

Row | Variant | protein stability index
76 | P2R | 3.98
77 | P2C | 2.28
78 | P2Y | 2.51
79 | P2A | 2.26
80 | P2L | 2.15
81 | P2Q | 1.92
82 | P2H | 1.86
83 | P2M | 3.12
84 | P2N | 2.12
85 | P2E | 2.04
86 | P2D | 2.54
87 | P2T | 2.03
88 | P2W | 1.82
89 | P2K | 2.57
90 | P2F | 2.73
91 | P2S | 2.7
92 | A6S | 2.33
93 | A6H | 2.53
94 | A6P | 2.53
95 | A6V | 2.04
96 | A6E | 3.09
97 | A6I | 2.46
98 | A6R | 2.19
99 | A6W | 2.9
100 | A6M | 2.75

Row | Variant | protein stability index
101 | A6C | 2.35
102 | A6K | 2.97
103 | A6F | 2.32
104 | A6Q | 2.36
105 | A6D | 2.9
106 | A6T | 2.29
107 | A6Y | 2.19
108 | A6G | 2.02
109 | A6L | 3.02
110 | A6N | 2.58
111 | F7H | 2.19
112 | F7P | 2.57
113 | F7S | 3.43
114 | F7N | 2.45
115 | F7I | 2.98
116 | F7Q | 3.45
117 | F7M | 2.58
118 | F7A | 3.27
119 | F7D | 2.59
120 | F7R | 1.92
121 | F7E | 3.21
122 | F7G | 3.17
123 | F7C | 2.22
124 | F7K | 2.31

Variants of: B2
Assay: as above
Conditions: c terminus: a fixed tail appended

Row | Variant | protein stability index
125 | K22W | 2.09
126 | K22D | 1.92
127 | K22C | 3.83
128 | K22L | 1.71
129 | K22S | 2.72
130 | K22P | 1.66
131 | K22T | 2.17
132 | K22M | 1.82
133 | K22Q | 1.68
134 | K22H | 1.34
135 | K22R | 1.35
136 | K22A | 1.29
137 | K22Y | 2.27
138 | K22I | 1.81
139 | R23A | 1.73
140 | R23E | 1.86
141 | R23Y | 1.28
142 | R23L | 1.35
143 | R23N | 1.81
144 | R23T | 2.25
145 | R23K | 1.91
146 | R23H | 1.99
147 | R23W | 1.26
148 | R23M | 1.38

Row | Variant | protein stability index
149 | R23V | 1.88
150 | R23C | 1.67
151 | R23D | 1.72
152 | R23P | 3.46
153 | R23S | 1.29
154 | R23I | 1.69
155 | R23G | 2.85
156 | R23Q | 2.39
157 | R23F | 2.01
158 | R17M | 1.93
159 | R17D | 3.03
160 | R17H | 2.35
161 | R17Y | 1.22
162 | R17S | 1.5
163 | R17V | 2.15
164 | R17Q | 2.02
165 | R17C | 1.11
166 | R17F | 1.52
167 | R17P | 2.28
168 | R17T | 1.71
169 | R17K | 1.76
170 | R17I | 1.56
171 | R17E | 2.26
172 | R17G | 1.71

Row | Variant | protein stability index
173 | R17N | 2.21
174 | R20A | 2.17
175 | R20H | 1.72
176 | R20N | 1.72
177 | R20C | 1.23
178 | R20V | 1.73
179 | R20E | 2.73
180 | R20L | 1.22
181 | R20T | 1.25
182 | R20S | 2.2
183 | R20Q | 3.07
184 | R20W | 3.61
185 | R20K | 1.43
186 | R20M | 1.72
187 | R20P | 1.45
188 | F11R | 1.51
189 | F11Y | 1.61
190 | F11H | 1.74
191 | F11C | 1.96
192 | F11M | 1.65
193 | F11S | 1.56
194 | F11L | 2.54
195 | F11K | 2.79
196 | F11G | 1.41

Row | Variant | protein stability index
197 | F11P | 1.28
198 | F11Q | 1.25
199 | F11E | 2.02
200 | S18H | 1.93
201 | S18Y | 2.35
202 | S18T | 2.31
203 | S18Q | 1.52
204 | S18N | 2.62
205 | S18A | 1.99
206 | S18P | 1.6
207 | S18D | 1.71
208 | S18R | 2.16
209 | S18V | 1.25
210 | S18M | 1.38
211 | I9N | 1.47
212 | I9L | 1.62
213 | I9P | 1.65
214 | I9S | 2
215 | I9W | 1.78
216 | I9H | 1.83
217 | I9R | 2.02
218 | I9T | 2.78
219 | I9Q | 2.81
220 | D21S | 3.06

Row | Variant | protein stability index
221 | D21P | 2.61
222 | D21M | 2.08
223 | D21H | 2.02
224 | D21G | 1.27
225 | D21V | 2.94
226 | D21Y | 1.22
227 | D21A | 3.22
228 | D21R | 1.19
229 | D21C | 2.4
230 | D21E | 1.1
231 | D21F | 3.21
232 | D21K | 1.31
233 | P14F | 1.69
234 | P14H | 1.67
235 | P14I | 1.43
236 | P14C | 1.82
237 | P14E | 1.99
238 | P14Q | 2.5
239 | P14L | 1.24
240 | P14G | 1.69
241 | P14N | 1.81
242 | D24I | 2.59
243 | D24C | 2.75
244 | D24A | 1.68

Row | Variant | protein stability index
245 | D24M | 1.66
246 | D24E | 1.93
247 | D24Q | 1.37
248 | D24S | 2.23
249 | D24Y | 1.58
250 | D24V | 1.31
251 | D24R | 1.94
252 | D24L | 2
253 | D24P | 2
254 | D24F | 1.93
255 | D24H | 2.1
256 | D24K | 1.37
257 | D24N | 1.49
258 | D24T | 2.21
259 | Y15P | 2.41
260 | Y15E | 2.7
261 | Y15M | 1.53
262 | Y15N | 2.78
263 | Y15D | 2.31
264 | Y15W | 1.44
265 | Y15Q | 2.56
266 | Y15I | 2.15
267 | Y15V | 2.22
268 | Y15F | 1.48

Row | Variant | protein stability index
269 | Y15H | 2.78
270 | Y15A | 3.09
271 | Y15C | 2.21
272 | Y15S | 2.58
273 | Y15T | 2.75
274 | Y15K | 2
275 | Y15G | 2.68
276 | F16L | 1.44
277 | F16T | 1.9
278 | F16D | 2.74
279 | F16C | 1.52
280 | F16N | 2.68
281 | F16P | 1.47
282 | F16S | 1.83
283 | F16E | 2.22
284 | F16I | 2.18
285 | F16Q | 2.39
286 | F16H | 2.3
287 | F16W | 2.08
288 | F16A | 1.68
289 | Q10H | 1.51
290 | Q10I | 2.33
291 | Q10Y | 1
292 | Q10A | 1.56

Row | Variant | protein stability index
293 | Q10L | 1.67
294 | Q10V | 2.31
295 | Q10F | 1.52
296 | Q10S | 1.98
297 | Q10P | 1.74
298 | Q10D | 2.04
299 | Q10N | 1.95
300 | Q10C | 2.6
301 | Q10K | 1.67
302 | D19R | 1.9
303 | D19A | 1.67
304 | D19S | 1.33
305 | D19I | 2
306 | D19Q | 1.85
307 | D19P | 2.16
308 | D19M | 2.01
309 | D19T | 2.21
310 | D19L | 1.47
311 | D19F | 1.68
312 | D19K | 1.46
313 | N12T | 2.37
314 | N12K | 2.04
315 | N12V | 1.9
316 | N12A | 1.09

Row | Variant | protein stability index
317 | N12R | 2.59
318 | N12D | 1.53
319 | N12E | 1.5
320 | N12S | 1.65
321 | N12I | 2.06
322 | N12M | 1.54
323 | F13C | 2.2
324 | F13E | 3.21
325 | F13Q | 2.28
326 | F13A | 1.84
327 | F13V | 1.43
328 | F13I | 1.35
329 | F13Y | 2.49
330 | F13M | 2.29
331 | F13D | 1.98
332 | F13K | 1.8
333 | F13P | 1.75
334 | F13S | 1.59
